# pKd: −log10 of the molar value.
# Assays:
# [1] = target: p67phox C-terminal SH3 (Homo sapiens) (UniProt P19878); conditions: cited from earlier work
# [2] = target: p22phox cytoplasmic domain (Homo sapiens) (UniProt P13498); conditions: cited from earlier work
# [3] = target: human NOXO1 tandem SH3 domains (SH3AB) (human); test: ITC; MicroCal VP-ITC, 18°C; 150 mM NaCl, 1 mM DTT, 50 mM HEPES pH 7.4; typically 20–40 µM protein in the cell, 200–300 µM ligand injected; single-site binding model; averaged over three to five experiments
# [4] = target: human NOXO1 SH3AB–E triple mutant (proline residues 323, 326 and 329 to alanine) (human); test: as above
# [5] = target: human NOXO1 SH3AB–E (tandem SH3 domains plus the C-terminal portion of NOXO1) (human); test: as above
# [6] = target: mouse NOXO1 tandem SH3 domains (SH3AB) (mouse); test: as above
# Sequence of p47phox tandem SH3 (P14598 156-285): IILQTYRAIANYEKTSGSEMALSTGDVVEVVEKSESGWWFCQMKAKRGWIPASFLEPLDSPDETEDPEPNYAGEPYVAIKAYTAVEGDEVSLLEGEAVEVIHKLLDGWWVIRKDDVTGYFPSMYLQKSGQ
# Sequence of p67phox C-terminal SH3 (Homo sapiens) (P19878 457-516): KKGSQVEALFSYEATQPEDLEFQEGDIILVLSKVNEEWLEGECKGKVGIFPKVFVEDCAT
# Sequence of p47phox C-terminal proline-rich region (P14598 359-390): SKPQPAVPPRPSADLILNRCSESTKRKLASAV
# Sequence of p22phox cytoplasmic domain (Homo sapiens) (P13498 132-195): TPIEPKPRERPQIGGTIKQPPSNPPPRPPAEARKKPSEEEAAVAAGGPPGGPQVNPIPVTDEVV
substance,measurement,setting,value
p47phox C-terminal proline-rich region (from UniProt P14598),pKd,[1],7.70
p47phox tandem SH3 (from UniProt P14598),pKd,[2],6.72
human p22^phox cytoplasmic domain (p22^phoxC) (domain or fragment),pKd,[3],6.82
same,dH,[3],-16.8 kcal/mol
same,pKd,[4],6.28
same,dH,[4],-8.1 kcal/mol
same,dH,[5],-3.2 kcal/mol
mouse p22^phox cytoplasmic domain (p22^phoxC) (from UniProt Q61462 127-192) (domain or fragment),pKd,[6],7.17
same,dH,[6],-12.9 kcal/mol

# From publication PMC2864300, “Regulation of NOXO1 Activity through Reversible Interactions with p22^phox and NOXA1” (PLoS ONE, 2010)
